Assays:
[1] = target: HIV-1 RRE IIB RNA; assay: Electrophoretic mobility shift assay; assay type: binding; conditions: read-out: Kd (dissociation constant) determined through EMSA; EMSA with RRE IIB
[2] = target: HIV-1 RRE IIB RNA; assay: Dot blot assay, 32P-labeled RRE IIB titrated with BPBAs; assay type: binding; conditions: read-out: Kd (dissociation constant), 32P-labeled RRE IIB titrated with increasing concentration of peptide, average of at least three experiments
[3] = test system: BPBA2 (synthetic); assay: EMSA; conditions: not stated in the material (details in ESI)
[4] = test system: BPBA3 (synthetic); assay: EMSA; conditions: not stated in the material (details in ESI)
[5] = test system: BPBA1 (synthetic); assay: EMSA; conditions: not stated in the material (details in ESI)
[6] = test system: BPBA2 (synthetic); assay: dot blot; conditions: not stated in the material (details in ESI)
[7] = test system: BPBA8 (synthetic); assay: dot blot; conditions: not stated in the material (details in ESI)
[8] = test system: BPBA4 (synthetic); assay: dot blot; conditions: not stated in the material (details in ESI)
[9] = test system: BPBA6 (synthetic); assay: dot blot; conditions: not stated in the material (details in ESI)
[10] = test system: BPBA1.2 (synthetic); assay: dot blot; conditions: not stated in the material (details in ESI)
[11] = test system: BPBA5 (synthetic); assay: dot blot; conditions: not stated in the material (details in ESI)
[12] = test system: BPBA3 (synthetic); assay: dot blot; conditions: not stated in the material (details in ESI)
[13] = test system: BPBA7 (synthetic); assay: dot blot; conditions: not stated in the material (details in ESI)
[14] = test system: BPBA1 (synthetic); assay: dot blot; conditions: not stated in the material (details in ESI)

Which Kd [1] does the source give for (FBPAYFBPA)2 * NKSY [BPBA3] here?
The Kd was 4.6 ± 2.4 µM.

What about the Kd [2] of the same substance?
Its Kd is 8.7 ± 2.3 µM.

Which Kd [2] does the source give for (KBBAKFBPA)2 * KBBAKKY [BPBA2] here?
Its Kd is 3.3 ± 1.2 µM.

How did the Kd [2] turn out when (KBBAYK)2 * HKKY [BPBA8] was run?
Its Kd is 86.5 ± 10 µM.

How did the Kd [2] turn out when (KKBBAF)2 * KKWY [BPBA5] was run?
The Kd was 27.2 ± 6.9 µM.

Which Kd [2] does the source give for (KKBBAK)2 * KLKY [BPBA7] here?
Its Kd is 58.4 ± 4 µM.

Which Kd [2] does the source give for (KKKBBA)2 * FBPATSY [BPBA4] here?
Its Kd is 26.8 ± 4.4 µM.

How did the Kd [2] turn out when (WKK)2 * KBBAYWY [BPBA1] was run?
Its Kd is 1.4 ± 0.4 µM.

HIV-1 RRE IIB RNA was tested. Which Kd [3] did it give?
The Kd was 0.6 µM.

What about the Kd [4] of the same substance?
Its Kd is 4.6 µM.

And the Kd [5]?
Its Kd is 0.3 µM.

What about the Kd [6] of the same substance?
The Kd was 3.3 µM.

What about the Kd [7] of the same substance?
Its Kd is 86.5 µM.

And the Kd [8]?
Its Kd is 26.8 µM.

And the Kd [9]?
The Kd was 28.5 µM.

And the Kd [10]?
Its Kd is 0.8 µM.

What about the Kd [11] of the same substance?
The Kd was 27.2 µM.

What about the Kd [12] of the same substance?
The Kd was 8.7 µM.

And the Kd [13]?
The Kd was 58.4 µM.

And the Kd [14]?
The Kd was 1.4 µM.

Reference: publication PMC3601739 (Chemical communications (Cambridge, England), 2013)
